Assays:
E. coli GlpT = molecular target: T1, E. coli GlpT (Escherichia coli, UniProt P08194); test: GlpT-dependent export from feeder vesicles, read by LC-MS of DOPA formed in utilizer vesicles; type: biochemical; conditions: antiport with external Pi, 50 mM KPi pH 7.0, 30 °C; indirect read-out
T1 construct: plasmid pBADmycHisB-glpT, expressed in E. coli MC1061, Ni-Sepharose and size exclusion in DDM, coreconstituted with L. sakei ArcD in vesicles; 54 kDa
T1 sequence (P08194 1-452): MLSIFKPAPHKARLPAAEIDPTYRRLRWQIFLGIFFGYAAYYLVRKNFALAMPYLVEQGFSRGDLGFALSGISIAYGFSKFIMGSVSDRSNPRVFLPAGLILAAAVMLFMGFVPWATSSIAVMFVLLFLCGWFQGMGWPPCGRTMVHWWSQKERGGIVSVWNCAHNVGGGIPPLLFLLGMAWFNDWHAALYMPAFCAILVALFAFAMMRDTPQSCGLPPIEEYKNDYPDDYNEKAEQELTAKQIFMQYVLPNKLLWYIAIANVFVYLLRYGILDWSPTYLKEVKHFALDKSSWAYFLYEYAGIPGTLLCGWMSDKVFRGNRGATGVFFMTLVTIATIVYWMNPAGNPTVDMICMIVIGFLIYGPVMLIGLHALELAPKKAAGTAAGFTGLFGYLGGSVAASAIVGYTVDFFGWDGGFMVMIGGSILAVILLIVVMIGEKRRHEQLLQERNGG

[1] = substrate: N=C(N)NCCC[C@H](N)C(=O)O; test: radiolabelled uptake into L-ornithine-loaded proteoliposomes, Michaelis-Menten fit; type: biochemical, Latilactobacillus sakei; conditions: 50 mM KPi pH 7.0, 2 mM DTT, 30 °C, internal L-ornithine 10 mM, external L-arginine 1-100 μM, labelled compound
Experimental: radiolabelled uptake into L-ornithine-loaded proteoliposomes, Michaelis-Menten fit on L. sakei ArcD | the affinity constant (KM) and turnover number (kcat) were determined for the L. sakei antiporter

[2] = substrate: N=C(N)NCCC[C@H](N)C(=O)O; test: cells, lysate or membranes; design: species or system L. lactis JP9000 ΔarcD1ΔarcD2; Radiolabeled L-arginine uptake in L-ornithine-loaded whole cells, filtration and scintillation counting; conditions: pH 7.0; 20.0 °C
Experimental: The arcD and arcE genes were cloned into nisin A-based expression vectors and flanked by a 10× His-tag at either the N- or the C-terminus. The constructs were transformed into L. lactis JP9000 ΔarcD1ΔarcD2[24] and the expression was optimized. […] All of these proteins were tested for L-arginine transport activity in vivo (Figure S4). […] By assuming a similar level of expression as the original ArcD2, ArcD from L. sakei would have a 10-fold higher turnover number and was therefore chosen for further in vitro characterization (Table S4). The genes encoding arcD/E were PCR-amplified from the source DNA templates with Phusion high-fidelity DNA polymerase (Thermo Fisher Scientific) and customized primers (Eurofins Genomics, Table S3). Next, fragment exchange (FX)[36] was exploited to clone the genes of interest into pNZ-N(His) or pNZ-C(His) vectors suitable for overexpression in L. lactis strains. According to the procedure, the PCR amplification products were first cloned into a sequencing vector (pINITIAL). To this end, both the insets and the backbone (1:5 molar ratio) were digested with 2.5 U of SapI (New England Biolabs) for 1 h at 37 °C, followed by a heat inactivation step at 60 °C for 20 min. Ligation was carried out by adding 5 U of T4 ligase (New England Biolabs) and incubating for 1 h at RT. […]

[3] = substrate: N=C(N)NCCC[C@H](N)C(=O)O; test: cells, lysate or membranes; conditions: pH 7.0; 20.0 °C

O=P(O)(O)OC[C@H](O)CO [glycerol 3-phosphate]
GlpT-dependent export from feeder vesicles, read by LC-MS of DOPA formed in util (E. coli GlpT): only when the feeder vesicles were equipped with the glycerol 3-phosphate exporter GlpT

B1: L. sakei ArcD (Latilactobacillus sakei) (protein)
chain: MTEEKPAKKIGLLALIALVISSSIGSGVFGLTSDLASASAPGPVLIAWVIVGFGILMLALSLNNLLMKEPELEGIFSYAEKGFGPFAGFISGWGYWLSAWLGNVTFATILMSALGYFFPIFKSRQNLPSILVASVLSWSLTYFVNRGVEGAAAINTLVTICKLIPLFVFIIFGIVLFKGHLFTQAFWNNMSSSFVAGDVMSQIKNCMMVMMWVFVGIEGASMLSARAEKKSDAGKATILGLVSLLAIYILASVLPYGYLTQDQLASIKQPAMLYIFEQMVGTWGGYFIGVGLIISILGAWLSWTMLPAETMLLMAKQNLLPAYFGRVNKKKAPTFALVVTAGLIQVFLFTLLFTTKAYNFAYSLCTASIIVCYMLVAAYQIKYSWAHLQEKGNRQQLLIGVLALLFEIAGILMAGVSYLLLCFIAYIPGIYFYGRARKNNGHQHFLSKGEWLITTIIVIGAIIGIWLVVSGKIVI
notes: N-terminal 10x His-tag (plasmid pNZarcD-LS), expressed in L. lactis JP9000 delta-arcD1 delta-arcD2, purified in DDM, reconstituted in DOPE/DOPG/DOPC liposomes; 54 kDa
Km [1]: 12.2 ± 1.5 µM
kcat [1]: 5.8 ± 1.2 s⁻¹
Km [2]: 26.8 µM

B2: P. aeruginosa ArcD (Pseudomonas aeruginosa PAO1) (protein)
chain: MSQESSQKLRLGALTALVVGSMIGGGIFSLPQNMAASADVGAVLIGWAITAVGMLTLAFVFQTLANRKPELDGGVYAYAKAGFGDYMGFSSAWGYWISAWLGNVGYFVLLFSTLGYFFPIFGKGDTVAAIVCASVLLWALHFLVLRGIKEAAFINTVTTVAKVVPLFLFILICLFAFKLDIFTADIWGKSNPDLGSVMNQVRNMMLVTVWVFIGIEGASIFSSRAEKRSDVGKATVIGFITVLLLLVLVNVLSMGVMTQPELAKLQNPSMALVLEHVVGHWGAVLISVGLLISLLGALLSWVLLCAEIMFAAAKDHTMPEFLRRENANQVPANALWLTNICVQVFLVVVFFTSGDPDGMDPYTKMLLLATSMILIPYFWSAAYGLLLTLKGETYENDARERSKDLVIAGIAVAYAVWLLYAGGLKYLLLSALLYAPGAILFAKAKHEVGQPIFTGIEKLIFAAVVIGALVAAYGLYDGFLTL
Km [3]: 7.5 µM

From publication PMC11106768, “Synthetic Vesicles for Sustainable Energy Recycling and Delivery of Building Blocks for Lipid Biosynthesis” (ACS Synthetic Biology, 2024)
